{"source": "patent US8530235B2", "about": "“Medium that supports culture of an oocyte and modulation of granulosa cell apoptosis” (Adelaide Research & Innovation Pty Ltd., priority 2005, dated 2013)", "molecules": {"B1": {"name": "BMP-15: Recombinant ovine BMP-15 produced in-house in transfected 293H cells, partially purified by hydrophobic interaction chromatography; dosed as % v/v (protein, UniProt Q9MZE2 269-393, looked up)", "Bone morphogenetic protein 15": "QAGSIASEVPGPSREHDGPESNQCSLHPFQVSFQQLGWDHWIIAPHLYTPNYCKGVCPRVLHYGLNSPNHAIIQNLVSELVDQNVPQPSCVPYKYVPISILLIEANGSILYKEYEGMIAQSCTCR"}, "B2": {"name": "GDF-9: Recombinant mouse GDF-9 produced in-house in transfected 293H cells, partially purified by HIC (protein, UniProt Q07105 307-441, looked up)", "Growth/differentiation factor …": "GQKAIRSEAKGPLLTASFNLSEYFKQFLFPQNECELHDFRLSFSQLKWDNWIVAPHRYNPRYCKGDCPRAVRHRYGSPVHTMVQNIIYEKLDPSVPRPSCVPGKYSPLSVLTIEPDGSIAYKEYEDMIATRCTCR"}}, "key": {"Bcl-2 and Bax proteins": {"tested_on": "Bcl-2 and Bax proteins", "assay": "Western blot of Bcl-2 and Bax expression in OOX cumulus cells", "format": "cell-based, Bovine", "details": "OOX 24 h; for ratio of Bcl-2 to Bax: 132 ng/ml GDF-9, 10% v/v BMP-15 or 35 DO/well", "procedure": "Following culture treatments, OOX complexes were lysed in […] RIPA lysis buffer (10 mM Tris [pH 7.4], 150 mM NaCl, 1 mM EDTA, 1% Trinton X-100 and stored at −80° C., for detection of apoptotic proteins using the sensitive Enhanced Chemiluminescence (ECl) Advance system (Amersham Biosciences, Ontario, Canada). Thawed lysates were mixed with 4× loading buffer containing 100 mM Dithiothretol (DTT) and subjected to SDS-PAGE (12% polyacrylamide gel). Proteins were subsequently electrotransferred to nitrocellulose membranes (Hybond-ECl, Amersham life Science, Ontario, Canada.) in 25 mM Tris-192 mM glycine containing 20% methanol. Blots were blocked in 20 mM Tris (pH 7.6) containing 13.7 mM NaCl, 1% Tween-20, and 2% blocking agent (provided in ECl Advance Kit) for 1 hr at RT, then incubated overnight with Bcl-2 or Bax rabbit polyclonal antibodies (0.35 μg/ml; Santa Cruz Biotechnology, Calif., USA) at 4° C., followed by incubation with horseradish peroxidase-conjugated anti-rabbit antibody (1:200 000; Silemus laboratories, Melbourne, Australia). Images were then scanned using a flat bed scanner and the intensity of Bcl-2 and Bax bands in each sample was quantitated by the ImageJ Imaging System Software version 1.3 (National Institutes of Health, USA).\nThis experiment was conducted to confirm that treatment effects on CC apoptosis, as assessed by TUNEL, are concomitant with changes in expression of key proteins regulating cell death and survival. OOX were cultured for 24 h untreated, or treated with 132 ng/ml GDF-9, 10% v/V BMP-15, co-cultured with 35 DO/well, or 10% 293H (control conditioned medium), and then subjected to Western blot for analysis of Bcl-2 and Bax expression."}, "cumulus-oocyte complexes": {"tested_on": "cumulus-oocyte complexes", "assay": "Study II: oocyte developmental competence after IVM, IVF and embryo culture (cleavage, blastocyst)", "format": "cell-based, Bovine", "procedure": "Bovine ovaries were collected from local abattoirs and transported to the laboratory in warm saline (30-35° C.). Cumulus-oocyte complexes (COC) were aspirated from antral follicles (2 to 8 mm diameter) using an 18-gauge needle and a 10-ml syringe containing ˜2 ml aspiration media (Hepes-buffered Tissue Cultured Medium-199; TCM-199, ICN Biochemicals, Irvine, Calif., USA) supplemented with 50 μg/ml kanamycin, 0.5 mM sodium pyruvate, 50 μg/ml heparin and 4 mg/ml fatty acid-free bovine serum albumin (FAF-BSA; ICPbio Ltd, Aukland, NZ). Intact COC with compact cumulus vestments greater than five cell layers and evenly pigmented cytoplasm were selected under a dissecting microscope and washed twice in Hepes-buffered TCM-199 and once in Hepes-TCM199 supplemented with 10% fetal calf serum (FCS) (Invitrogen, Carlsbad, Calif.). Base media for oocyte maturation was Bovine VitroMat (Cook Australia, Eight Mile Plain, Qld, Australia), and is a medium based on the ionic composition of bovine follicular fluid and also containing 100 μm glycylglutamine (Glutamax; Gibco Invitrogen, Carlsbad, Calif., USA), 100 μm N-acetyl-1-cysteine, 100 μm 2-mercaptoethylamine, 1% v/v non-essential amino acids (100×; Gibco Invitrogen), 2% v/v essential amino acids (50×; Gibco Invitrogen), 4 mg mL-1 fatty acid-free BSA and 5.6 mm glucose. […] (Puregon, Organon, Oss, Netherlands). Complexes were cultured pre-equilibrated […] drops overlaid with mineral oil and incubated at 39° C. with 5% CO2 in humidified air for 24 hour. […]\nRecombinant mouse GDF-9 and recombinant ovine BMP-15 were produced in-house as previously described (Kaivo-Oja et al. (2003) J. Clin. Endocrinol Metab 88:755-762; McNatty et al. (2005) Reproduction 129:473-480) using transfected 293 human embryonic kidney cell lines (293H). Recombinant proteins were partially purified using hydrophobic interaction chromatography (HIC), as recently described (Hickey et al., (2005) Biol Reprod on line), and their concentrations were then estimated by Western blot (Kaivo-Oja et al., 2003 3) J. Clin. Endocrinol Metab 88:755-762). Control conditioned medium (293H) was also produced from untransfected 293H cells and purified by HIC.\nAll experiments were carried out using frozen semen from the same bull of proven fertility. Briefly, one straw of semen stored in liquid nitrogen was rapidly thawed in a water bath for one minute. The semen sample was layered on top of a discontinuous (45%:90%) Percoll gradient (Amersham Bioscience) and centrifuged at room temperature for 20-25 mins at 700 g. The supernatant was removed and the sperm pellet was washed with […] Bovine Vitro Wash (Cook Australia, Eight Mile Plains, Qld, Australia) and centrifuged for a further 5 minutes at 200 g. spermatozoa were resuspended with TVF medium (Bovine Vitro Fert, Cook Australia), then added to the fertilization media drops (Bovine Vitro Fert, Cook Australia, supplemented with 0.01 mM heparin, 0.2 mM penicillamine and […] hypotaurine) at a final concentration of 1×10^6 spermatozoa/ml. COCs were inseminated at a media density of […] of IVF medium per COCs for 24 h, at 39° C. in 6% CO2 in humidified air.\nCumulus cells were removed by gentle pipetting 23-24 h post insemination and five presumptive zygotes were transferred into 20 μl drops of pre-equilibrated Cook Bovine Cleave medium (modified SOFaa, Cook Australia) and cultured under mineral oil at 38.5° C. in 7% O2, 6% CO2, balance N2, for five days (day 1 to day 5).\nOn Day 5, embryos were transferred in groups of […] drops of pre-equilibrated Bovine Vitro Blast (Cook Bovine Blast medium; Cook Australia) at 38.5° C. overlaid with mineral oil and cultured to Day 8. Embryos were assessed for quality at Day 8 according to the definitions presented in the Manual of the International Embryo Transfer Society and were performed independently and blinded by an experienced bovine embryologist. […]"}, "[1]": {"details": "1st REP, COC IVM 24 h, 175 ng/ml GDF-9, 10% BMP-15, 10% 293H"}}, "data": [{"molecule": "B1", "values": [{"measurement": "ratio of Bcl-2 to Bax", "setting": "Bcl-2 and Bax proteins", "result": "alter the ratio of Bcl-2 to Bax in favour of cell survival"}, {"measurement": "expression of Bax protein in CC", "setting": "Bcl-2 and Bax proteins; 10% v/v BMP-15 or 35 DO/well", "result": "barely detectable"}, {"measurement": "expression of Bcl-2 protein in CC", "setting": "Bcl-2 and Bax proteins; 10% v/v BMP-15 or 35 DO/well, compared to untreated or GDF-9", "result": "significantly (P<0.001) higher"}, {"measurement": "BLACTOCYST RATE", "setting": "cumulus-oocyte complexes; [1]", "result": 58, "unit": "%"}, {"measurement": "CLEAVAGE RATE", "setting": "cumulus-oocyte complexes; [1]", "result": 76, "unit": "%"}, {"measurement": "BLACTOCYST RATE", "setting": "cumulus-oocyte complexes; 2nd REP", "result": 63, "unit": "%"}, {"measurement": "CLEAVAGE RATE", "setting": "cumulus-oocyte complexes; 2nd REP", "result": 90, "unit": "%"}, {"measurement": "BLACTOCYST RATE", "setting": "cumulus-oocyte complexes; 3rd REP", "result": 50, "unit": "%"}, {"measurement": "CLEAVAGE RATE", "setting": "cumulus-oocyte complexes; 3rd REP", "result": 80, "unit": "%"}, {"measurement": "BLACTOCYST RATE", "setting": "cumulus-oocyte complexes; 4th REP", "result": 50, "unit": "%"}, {"measurement": "CLEAVAGE RATE", "setting": "cumulus-oocyte complexes; 4th REP", "result": 85, "unit": "%"}, {"measurement": "BLACTOCYST RATE", "setting": "cumulus-oocyte complexes; AVERAGE, control COC 41.5%", "result": 55, "unit": "%"}, {"measurement": "CLEAVAGE RATE", "setting": "cumulus-oocyte complexes; AVERAGE, control COC 84%", "result": 83, "unit": "%"}, {"measurement": "number of oocytes that reached the blastocyst stage post insemination", "setting": "cumulus-oocyte complexes; alone or in combination with GDF9, compared with GDF-9 alone or no supplement", "result": "more effective"}]}, {"molecule": "B2", "values": [{"measurement": "ratio of Bcl-2 to Bax", "setting": "Bcl-2 and Bax proteins", "result": "no effect"}, {"measurement": "BLACTOCYST RATE", "setting": "cumulus-oocyte complexes; [1]", "result": 50, "unit": "%"}, {"measurement": "CLEAVAGE RATE", "setting": "cumulus-oocyte complexes; [1]", "result": 88, "unit": "%"}, {"measurement": "BLACTOCYST RATE", "setting": "cumulus-oocyte complexes; 2nd REP", "result": 58, "unit": "%"}, {"measurement": "CLEAVAGE RATE", "setting": "cumulus-oocyte complexes; 2nd REP", "result": 92, "unit": "%"}, {"measurement": "BLACTOCYST RATE", "setting": "cumulus-oocyte complexes; 3rd REP", "result": 35, "unit": "%"}, {"measurement": "CLEAVAGE RATE", "setting": "cumulus-oocyte complexes; 3rd REP", "result": 84, "unit": "%"}, {"measurement": "BLACTOCYST RATE", "setting": "cumulus-oocyte complexes; 4th REP", "result": 36, "unit": "%"}, {"measurement": "CLEAVAGE RATE", "setting": "cumulus-oocyte complexes; 4th REP", "result": 83, "unit": "%"}, {"measurement": "BLACTOCYST RATE", "setting": "cumulus-oocyte complexes; AVERAGE, control COC 41.5%", "result": 45, "unit": "%"}, {"measurement": "CLEAVAGE RATE", "setting": "cumulus-oocyte complexes; AVERAGE, control COC 84%", "result": 87, "unit": "%"}]}]}
